We go through 1 substance from patent US20030148460.

The target in data set [1] is uteroferrin (UniProt P09889).
Data set [2] deals with RNAse B.
The test system of data set [3] is cathepsin D.

Chain of UniProt P09889 (P09889 22-340): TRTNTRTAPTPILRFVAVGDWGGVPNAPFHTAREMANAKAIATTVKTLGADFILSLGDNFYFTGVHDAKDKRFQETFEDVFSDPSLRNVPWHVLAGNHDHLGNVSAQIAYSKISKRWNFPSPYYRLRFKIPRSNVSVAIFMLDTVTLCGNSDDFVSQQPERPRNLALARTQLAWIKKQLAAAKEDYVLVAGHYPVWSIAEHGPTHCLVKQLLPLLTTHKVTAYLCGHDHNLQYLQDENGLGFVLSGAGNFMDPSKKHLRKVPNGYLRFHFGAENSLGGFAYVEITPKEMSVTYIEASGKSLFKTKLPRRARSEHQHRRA

Regarding “bovine GlcNAc-phosphotransferase (UDP-N-acetylglucosamine: lysosomal enzyme N-Acetylglucosamine-1-phosphotransferase)”, the “Km as acceptor for transfer of GlcNAc-1-P” value in data set [1] is “Both uteroferrin and cathepsin D are effectively utilized as acceptors by purified GlcNAc-phosphotransferase with Kms below 20 µM”; in data set [2] it was “the Km was not reached at the solubility limit of the protein (at 600 µM)”; in data set [3], “Both uteroferrin and cathepsin D are effectively utilized as acceptors by purified GlcNAc-phosphotransferase with Kms below 20 µM”.
